The target of assay [1] is T1, hACE1 (Homo sapiens, UniProt P12821).
T1 construct: purchased R&D Systems
As to the kind of experiment: biochemical.
Experimental: The activity assay was performed by incubating 0.25 nM of hACE2 with 50 μM fluorogenic substrate Mca-Ala-Pro-Lys­(Dnp)–OH (MedChemExpress, Monmouth Junction, NJ, USA) and 3-fold MP dilutions (ranging from 0.03 nM to 100 μM). […] All reagents were diluted in 10 mM Tris–HCl, pH 7.4, 300 mM NaCl, 100 μM ZnCl2, 0.1% w/v BSA, and 0.1% v/v DMSO assay buffer. The measurements were performed on a Berthold TriStar LB 941 microplate reader (Berthold Technologies, Bad Wildbad, Germany) using flat-bottom 96-well half area Corning Costar plates (Corning, New York, USA). The enzymatic reactions were performed at 25 °C for 90 min, under shaking with a maximum excitation wavelength (λex) of 320 nm and maximum emission wavelength (λem) of 405 nm. The initial velocities were monitored as changes in fluorescence intensity. Half-maximum inhibitory concentration (IC50) values were determined using GraphPad Prism v8.2.1 software (GraphPad software Inc., San Diego, CA, USA). […] Reactions were initiated by adding hACE2 (final concentration 0.25 nM) to the fluorogenic substrate in assay buffer at 25 °C. Fluorescence was recorded as described earlier (λex = 320 nm, λem = 405 nm) using a Berthold TriStar LB 941 microplate reader (Berthold Technologies, Bad Wildbad, Germany). Initial velocities (V 0) were plotted against substrate concentrations [S] and analyzed via nonlinear regression using a one-site specific binding model using GraphPad Prism v8.2.1 software (GraphPad software Inc., San Diego, CA, USA). […] All reagents were diluted in 10 mM Tris-HCl, pH 7.4, 300 mM NaCl, 100 μM ZnCl2, 0.1% w/v BSA, and 0.1% v/v DMSO buffer. Measurements and data analysis were performed as mentioned above.

The target of assay [2] is T2, hACE2 (Homo sapiens, UniProt Q9BYF1). Also on record: method as in ref 2 (SI list; Harman et al. 2023). The conditions noted are these: phage display bicyclic peptides, ref 2 (SI list; Harman et al. 2023), cited from earlier work; for Ki: where not reported, calculated by Cheng-Prusoff, Km 23 μM.
The target in assay [3] is T2, hACE2. On the set-up: method as in ref 2 (SI list; Harman et al. 2023). The settings on record: phage display bicyclic peptides; ref 2 (SI list; Harman et al. 2023); cited from earlier work.
The target in assay [4] is T2, hACE2. On the set-up: method as in ref 4 (SI list; Huang et al. 2003). The conditions noted are these: phage display DX peptides, ref 4 (SI list; Huang et al. 2003), cited from earlier work; for Ki: where not reported, calculated by Cheng-Prusoff, Km 23 μM.
Assay [5] addresses T2, hACE2. On the set-up: method as in ref 3 (SI list; Bedding et al. 2024). The settings on record: mRNA display cyclic peptides; ref 3 (SI list; Bedding et al. 2024); cited from earlier work.
In assay [6] the target is T2, hACE2. On the set-up: method as in ref 3 (SI list; Bedding et al. 2024). The conditions noted are these: mRNA display cyclic peptides, ref 3 (SI list; Bedding et al. 2024), cited from earlier work; for Ki: where not reported, calculated by Cheng-Prusoff, Km 23 μM.

Several values for one entry are separate records, joined by “and”; a condition that tells them apart may be missing. Identical values can stand only once. Like-named read-outs stand apart in the source and are kept apart here.

A word on the IC50: it is the concentration needed to halve the response being measured. The term Ki denotes a measure of affinity in units of concentration, obtained from inhibition or displacement. Broadly, the Kd is the concentration at which binding is half-saturated.

T2 sequence (Q9BYF1 19-615): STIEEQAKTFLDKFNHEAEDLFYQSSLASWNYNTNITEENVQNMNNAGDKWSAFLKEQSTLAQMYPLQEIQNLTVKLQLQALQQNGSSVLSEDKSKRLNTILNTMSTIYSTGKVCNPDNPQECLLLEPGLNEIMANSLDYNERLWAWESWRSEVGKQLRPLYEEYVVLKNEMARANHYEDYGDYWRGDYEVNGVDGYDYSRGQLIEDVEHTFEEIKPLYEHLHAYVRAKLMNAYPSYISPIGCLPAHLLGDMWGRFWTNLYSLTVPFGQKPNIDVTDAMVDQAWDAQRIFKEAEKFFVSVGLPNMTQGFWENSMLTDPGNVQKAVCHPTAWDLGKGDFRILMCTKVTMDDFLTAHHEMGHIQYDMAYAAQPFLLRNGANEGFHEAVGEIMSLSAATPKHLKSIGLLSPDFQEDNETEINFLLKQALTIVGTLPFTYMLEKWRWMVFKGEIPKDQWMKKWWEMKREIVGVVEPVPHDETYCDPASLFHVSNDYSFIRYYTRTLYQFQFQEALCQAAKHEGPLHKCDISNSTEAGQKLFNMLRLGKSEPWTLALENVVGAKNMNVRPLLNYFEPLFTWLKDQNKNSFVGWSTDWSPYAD
T1 sequence (P12821 30-1306): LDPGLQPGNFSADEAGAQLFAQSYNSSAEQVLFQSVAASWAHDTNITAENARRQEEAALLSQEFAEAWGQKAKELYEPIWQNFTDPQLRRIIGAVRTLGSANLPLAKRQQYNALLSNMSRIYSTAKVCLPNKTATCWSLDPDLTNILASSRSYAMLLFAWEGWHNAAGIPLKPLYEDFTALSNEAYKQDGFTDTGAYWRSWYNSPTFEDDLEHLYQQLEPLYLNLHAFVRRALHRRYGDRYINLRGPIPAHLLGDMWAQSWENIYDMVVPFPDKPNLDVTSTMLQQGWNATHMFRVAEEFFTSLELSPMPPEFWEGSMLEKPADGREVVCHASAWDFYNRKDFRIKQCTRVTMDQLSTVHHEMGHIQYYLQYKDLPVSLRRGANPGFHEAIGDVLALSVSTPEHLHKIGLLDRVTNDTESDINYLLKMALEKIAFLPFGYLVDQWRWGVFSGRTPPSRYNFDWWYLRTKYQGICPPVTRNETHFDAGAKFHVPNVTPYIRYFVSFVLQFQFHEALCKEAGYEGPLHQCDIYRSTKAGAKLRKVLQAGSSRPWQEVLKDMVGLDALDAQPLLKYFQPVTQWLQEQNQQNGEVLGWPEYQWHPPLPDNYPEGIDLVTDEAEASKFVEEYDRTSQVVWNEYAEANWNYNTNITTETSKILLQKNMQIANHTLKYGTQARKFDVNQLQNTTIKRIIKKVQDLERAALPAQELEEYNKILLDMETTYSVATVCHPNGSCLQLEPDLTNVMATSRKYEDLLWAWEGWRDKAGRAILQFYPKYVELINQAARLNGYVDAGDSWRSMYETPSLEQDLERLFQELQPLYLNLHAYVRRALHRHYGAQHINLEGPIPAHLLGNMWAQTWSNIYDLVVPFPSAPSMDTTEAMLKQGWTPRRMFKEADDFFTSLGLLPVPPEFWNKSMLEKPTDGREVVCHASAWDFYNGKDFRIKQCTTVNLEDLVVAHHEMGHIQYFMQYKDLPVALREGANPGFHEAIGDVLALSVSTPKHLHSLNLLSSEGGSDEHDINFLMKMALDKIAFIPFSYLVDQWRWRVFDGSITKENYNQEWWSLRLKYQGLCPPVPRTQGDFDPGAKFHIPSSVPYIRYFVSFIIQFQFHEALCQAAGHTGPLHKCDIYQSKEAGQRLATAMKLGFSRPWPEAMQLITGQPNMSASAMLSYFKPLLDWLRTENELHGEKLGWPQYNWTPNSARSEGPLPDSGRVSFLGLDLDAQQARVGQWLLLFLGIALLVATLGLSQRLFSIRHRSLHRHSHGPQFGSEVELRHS

Molecule `CC(=O)NCC(=O)N[C@@H](CC(=O)O)C(=O)N[C@@H](Cc1ccc(O)cc1)C(=O)N[C@@H](CO)C(=O)N[C@@H](Cc1cnc[nH]1)C(=O)N[C@H]1CSSC[C@@H](C(=O)N[C@H](C(=O)N[C@@H](Cc2ccc(O)cc2)C(=O)N2CCC[C@H]2C(=O)N[C@@H](CC(=O)O)C(=O)N2CCC[C@H]2C(=O)N[C@@H](CCC(=O)O)C(=O)NCC(=O)NCC(=O)NCC(N)=O)[C@@H](C)O)NC(=O)[C@H](CCCCN)NC(=O)[C@H](Cc2c[nH]c3ccccc23)NC(=O)[C@H](Cc2c[nH]c3ccccc23)NC(=O)[C@@H]2CCCN2C(=O)[C@H](Cc2ccc(O)cc2)NC(=O)[C@H](Cc2ccc(O)cc2)NC(=O)[C@H](CCCNC(=N)N)NC(=O)[C@H](CC(C)C)NC(=O)[C@@H]2CCCN2C(=O)[C@H](CO)NC1=O` [DX600] had an IC50 in assay [1] of over 100000 nM.

ACGREELPCRIKLCA [BCY15298]: the IC50 in assay [2] is over 40000 nM.

Turning to ACGRQFCHTLMPRHLCA [BCY15292], in assay [2], the IC50 was 2.6 nM and the Ki is 1.2 nM. In addition, in assay [3], the dissociation constant Kd was 1.2 nM.

For ACHKFPCRDPQQYLFCA [BCY15296], in assay [2], the half-maximal inhibitory concentration (IC50) was 47 nM and the Ki is 21 nM. For the same molecule, the Kd in assay [3] is 29 nM.

For the molecule ACHRDFPRCTWETQWCA [BCY15297], in assay [2], the IC50 is 12000 nM and the inhibition constant (Ki) was 5200 nM. The equilibrium dissociation constant (Kd) in assay [3] was 11000 nM.

Consider ACLRSYNLCPRINCA [BCY15294], for which, in assay [2], the IC50 is 2400 nM and the Ki was 1100 nM. Further, the equilibrium dissociation constant (Kd) in assay [3] is 850 nM.

For ACTRPWCHSLLPRATCA [BCY15293], in assay [2], the concentration for half-maximal inhibition (IC50) was 4.9 nM and the Ki is 2.2 nM. Further, the Kd in assay [3] is 1.6 nM.

In the case of ACVRSHCSSLLPRIHCA [BCY15291], in assay [2], the IC50 is 2 nM and the inhibition constant Ki was 0.9 nM. Also, in assay [3], the dissociation constant Kd was 0.4 nM and 0.44 nM.

With AGQKECKFGYPHCLPWGT [DX530], the half-inhibitory concentration (IC50) in assay [4] is 30000 nM.

As for AGSDWCGTWNNPCFHQGT [DX531], in assay [4], the 50% inhibitory concentration (IC50) was 500 nM and the inhibition constant Ki is 540 nM.

AGWEVCHWAPMMCKHGGT [DX529]: in assay [4], the half-inhibitory concentration (IC50) is 400 nM and the inhibition constant Ki was 380 nM.

As to GSRGFCRDSSCSFPAP [DX525], in assay [4], the 50% inhibitory concentration (IC50) was 1000 nM and the Ki is 1700 nM.

GSRIGCRDSRCNWWAP [DX524]: in assay [4], the half-inhibitory concentration (IC50) was 600 nM and the inhibitory constant (Ki) was 540 nM.

For the molecule Y*AVLLHKGKFVFTYGC [peptide12], the equilibrium dissociation constant (Kd) in assay [5] was 610 nM. In addition, in assay [6], the IC50 was 39500 nM and the inhibition constant (Ki) is 7390 nM.

Consider Y*FQRSVRLPYLRC [peptide2], for which the Kd in assay [5] was 0.04 nM.

As for Y*VFRSLRTPFIVC [peptide1], the Kd in assay [5] was 0.4 nM.

For Y*VKRNVYEGYKPC [peptide15], the equilibrium dissociation constant (Kd) in assay [5] was 7.3 nM.

Regarding Y*VLSSPRGALRALRC [peptide3], the Kd in assay [5] is 290 nM.

As to Y*WTLFVFRDGVLPVWSC [peptide9], the dissociation constant Kd in assay [5] was 50.3 nM. Besides, in assay [6], the 50% inhibitory concentration (IC50) is 2050 nM and the inhibition constant (Ki) was 383 nM.

In the case of y*ARPLRHRPWYVSWC [peptide6], the Kd in assay [5] was 3.3 nM.

With y*DAYTRRTHRNPRLCQC [peptide7], in assay [5], the Kd is 32 nM.

With y*FNRSGKLLFLYC [peptide4], the Kd in assay [5] is 240 nM.

As for y*IRQFTSRVPLHC [peptide21], in assay [5], the equilibrium dissociation constant (Kd) was 3.6 nM.

Regarding y*LSVNRVFAYRIIYKC [peptide23], the Kd in assay [5] was 9.1 nM.

Turning to y*RLHRSPWAHFGFAC [peptide20], the equilibrium dissociation constant (Kd) in assay [5] is 228 nM. Moreover, in assay [6], the 50% inhibitory concentration (IC50) is 1980 nM and the inhibition constant Ki is 370 nM.

As for y*SYQYRGRFHRQC [peptide19], the dissociation constant (Kd) in assay [5] is 78 nM.

With y*TYQYRDRFFRPC [peptide22], the Kd in assay [5] is 14.8 nM.

On to y*VHIIYWKNGLPRITC [peptide14], for which the dissociation constant (Kd) in assay [5] was 82.3 nM. Also, in assay [6], the IC50 is 9720 nM and the Ki is 1820 nM.

With y*VQRPIRNVRLIRC [peptide24], in assay [5], the dissociation constant Kd was 430 nM.

For the molecule y*VVLRPLRDLGRVFC [peptide5], the Kd in assay [5] is 9 nM.

(Values after article PMC13071878, “Yeast Display Technology Enables Rapid Discovery of Low-Nanomolar Macrocyclic Peptide Inhibitors of Human Angiotensin-Converting Enzyme 2” (Journal of Medicinal Chemistry, 2026).)
